This note sets out measurements from patent publication US7063946B2, “Methods, reagents, kits and apparatus for protein function analysis” (Meso Scale Technologies, LLC., priority 2001, dated 2006).

Assay [1] has as its system N-end rule pathway ubiquitylation in reticulocyte lysates. Nature of the assay: ECL ubiquitylation assay of EST clone proteins, FK2 antibody coated IPR plate. The format is biochemical, rabbit. The method, then:
The following EST clones in bacteria were obtained: IMAGE ID #, 3446518, 3446518, 3446518, 3914731 (RGS4), 3914731 (RGS4), 3914731 (RGS4) (Incyte, Palo Alto). Bacteria containing EST clones were grown in 2 ml LB with 50 μg/ml Amp, and DNA was isolated using QIAprep Spin Miniprep Kit (Qiagen). DNA yield was 5–20 μg.
Proteins were prepared from the EST clones in transcription-translation reaction mixtures (total volume 12.5 uL) as described in the Materials and Methods except for the addition of 1 μM Ub aldehyde (Calbiochem). Then 1 μl of the reaction product was mixed with 50 μl of BB1 supplemented with 20 mM AMP-PNP, 20 mM N-ethylmaleimide and 2 μg/ml Sulfo-TAG-labeled streptavidin in to each well of an IPR plate coated with FK2 antibody.
As previously reported, RGS4 is a substrate of the N-end rule-dependent ubiquitylation in reticulocyte lysates (Davydov and Varshavsky, 2000, J. Biol. Chem., 275:22931–22941). To determine if the protein produced from clone 3446518 was similarly ubiquitylated through the N-end rule pathway, the ECL ubiquitylation assay was performed in the presence of dipeptide inhibitors Arg-β-Ala (type 1 inhibitor of the N-end rule pathway), or Trp-Ala (type 2 inhibitor of the same pathway). As was shown on FIG. 2, the RGS4 signal was reduced 3–4 fold in the presence of Arg-β-Ala (a type 1 inhibitor of the N-end rule pathway), but not in the presence of Trp-Ala (a type 2 inhibitor of the N-end rule pathway) in agreement with the previous report that RGS4 is a type 1 N-end rule substrate in reticulocyte lysates (Davydov and Varshavsky, 2000, J. Biol. Chem., 275:22931–22941). In contrast, the dipeptides had little effect on the assay signal from clone 3446518 (FIG. 2). Thus, a different pathway of the ubiquitin system mediates ubiquitylation of the protein produced from clone 3446518.

Assay [2] relates to ubiquitylation in reticulocyte lysates. As to the kind of experiment: 96-well screen of EST clones: ubiquitylation assay, FK2 antibody coated plate. The format is biochemical, rabbit. The method, then: Transcription-translation reactions were assembled in a 96-well plate as described in Materials and Method in a total volume of 19 μl. The amounts of DNA in each reaction varied depending on DNA yields at purification stage, while the four positive control wells contained reactions with 20 μg/ml plasmid DNA. The reactions were incubated at 30° C. for 40 min.
After incubation, 1 μl of the TNT reaction was mixed with 50 μl of BB1 in an IPR plate coated with FK2 antibody (750 ng antibody per well) (see Materials and Methods).

The next assay concerns pEY. As to the kind of experiment: In vitro kinase library screen: activity towards pEY. Particulars: 5 ul of expressed protein. The format is biochemical. The gist of the method:
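ECL read-out: phosphorylated poly(Glu-Tyr) bound on a PY20-coated plate, then probed with Sulfo-TAG-labelled anti-phosphotyrosine. The reaction beforehand ran overnight at room temperature with 100 µM ATP, 5 mM MgCl2, 5 mM MnCl2 and 5 nM pEY substrate. Enzymes were TnT-expressed, biotinylated and immobilised, with stringent washes.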

A further assay deals with pEY (poly Glu-Tyr). As to the kind of experiment: Tyrosine kinase activity assay of immobilized in vitro translated protein towards pEY. The class given is biochemical. On the procedure: Proteins were produced in an in vitro transcription and translation reaction. […] The unbound components of the reaction containing endogenous kinases were removed by three washes with TT-buffer (25 mM Tris-HCl buffer pH 7.4 and 0.004% Triton), two five minutes washings with high-salt wash buffer (25 mM Tris-HCl buffer pH 7.4, 0.004% Triton, 1M NaCl and 5 mM DTT) and 3 more washes with TT-buffer. To these immobilized and purified proteins a tyrosine kinase substrate, 5 nM pEY (poly Glu-Tyr, Sigma, MO), was added in a 50 μl reaction solution containing 5 mM MgCl2, 5 mM MnCl2, 100 μM ATP, 25 mM Tris-HCl buffer pH 7.4, 0.05 mM Na3VO4, 0.004% TritonX-100, 2 mM DTT and EDTA-free protease inhibitor (Roche Molecular Biochemicals). This mixture was incubated with shaking at room temperature overnight to allow phosphorylation of the pEY substrate by the immobilized kinases. Following this incubation, 45 μl of this mixture was transferred to a streptavidin or avidin-coated NPT IPR plate coated with biotinylated anti-phosphotyrosine antibody (PY20, Zymed labs, CA) followed by incubation for 30 minutes at room temperature to allow the binding of the phosphorylated pEY substrate to the PY20 coated NPT plate. Following this binding step, 50 ng Sulfo-TAG labeled anti-phosphotyrosine in buffer containing 25 mM Tris-HCl buffer pH 7.4, 5 mM MgCl2, 0.05 mM Na3VO4, 0.004% TritonX-100, 2 mM DTT and 0.05% IgG was added followed by incubation at room temperature for 30 mm. The unbound reagents were removed by one time washing with water, and the TAG label was detected in presence of 150 μl IPR assay buffer (0.4 mM Gly-Gly buffer, pH 7.8, 1 mM EDTA, 0.1 M TPA). The ECL signals were measured using an imaging plate reader.

For assay [3], the system named is autophosphorylation (phosphotyrosine). Nature of the assay: In vitro kinase library screen: autophosphorylation. The class given is biochemical. The gist of the method: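 ECL read-out after 45 min with Sulfo-TAG anti-phosphotyrosine antibody. Before that, immobilized in vitro-translated biotinylated SYK or EphA7 autophosphorylated overnight at room temperature in Tris pH 7.4 containing 100 μM ATP plus Mn++ and Mg++ (5 mM each).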

B1: 3912628: IMAGE clone protein: RGS4 (protein, UniProt P49798 1-205, looked up)
Regulator of G-protein …: MCKGLAGLPASCLRSAKDMKHRLGFLLQKSDSCEHNSSHNKKDKVVICQRVSQEEVKKWAESLENLISHECGLAAFKAFLKSEYSEENIDFWISCEEYKKIKSPSKLSPKAKKIYNEFISVQATKEVNLDSCTREETSRNMLEPTITCFDEAQKKIFNLMEKDSYRRFLKSRFYLDLVNPSSCGAEKQKGAKSSADCASLVPQCA
Consider B1, for which the “signal in ubiquitylation assay (in words)” value (“signal … (in words)” for short) in assay [1] is “strong specific signal”. Also, the “signal in ubiquylation screen (FIG. 2, in words)” value (“signal in ubiquylation screen” below) in assay [2] is listed as “strong specific signal”.

B2: 3914731: IMAGE clone protein: RGS4 (protein, UniProt P49798 1-205, looked up)
Regulator of G-protein …: B1 Regulator of G-protein …
For the molecule B2, the “signal … (in words)” value in assay [1] is reported as “strong specific signal”. Besides, in assay [1] (no dipeptide inhibitor), the “ECL readings, Experiment 1” value was determined as 41670; the “ECL readings, Experiment 2” value is 43729; the “ECL readings, Experiment 3” value is 41806. For the same molecule, in assay [2], the “signal in ubiquylation screen” value is “strong specific signal”.

B3: 3920860: IMAGE clone protein: RGS4 (protein, UniProt P49798 1-205, looked up)
Regulator of G-protein …: B1 Regulator of G-protein …
With B3, in assay [1], the “signal … (in words)” value is listed as “strong specific signal”. The “signal in ubiquylation screen” value in assay [2] is listed as “strong specific signal”.

B4: 4485050: IMAGE clone protein: Fert2, fer (fms/fps related) protein kinase, testis specific 2 (protein, UniProt P70451 1-823, looked up)
Tyrosine-protein kinase Fer: MGFGSDLKNSQEAVLKLQDWELRLLETVKKFMALRIKSDKEYAYTLQNLCNQVDKESTVQVNYVSNVSKSWLLMIQQTEQLSRIMKTHAEDLNSGPLHRLTMMIKDKQQVKKSYVGIHQQIEAEMIKVTKTELEKLKSSYRQLIKEMNSAKEKYKEALAKGKETEKAKERYDKATMKLHMLHNQYVLALKGAQLHQSQYYDTTLPLLLDSVQKMQEEMIKALKGIFDDYSQITSLVTEEIVNVHKEIQMSVEQIDPSTEYNNFIDVHRTTAAKEQEIEFDTSLLEENENLQANEIMWNNLTADSLQVMLKTLAEELTQTQQMLLHKEAAVLELEKRIEESFETCEKKSDIVLLLGQKQALEELKQSVQQLRCTEAKCAAQKALLEQKVQENDGKEPPPVVNYEEDARSVTSMERKERLSKFESIRHSIAGIIKSPKSVLGSSTQVCDVISVGERPLAEHDWYHGAIPRIEAQELLKQQGDFLVRESHGKPGEYVLSVYSDGQRRHFIIQFVDNLYRFEGTGFSNIPQLIDHHFNTKQVITKKSGVVLLNPIPKDKKWVLNHEDVSLGELLGKGNFGEVYKGTLKDKTPVAIKTCKEDLPQELKIKFLQEAKILKQYDHPNIVKLIGVCTQRQPVYIIMELVPGGDFLTFLRKRKDELKLKQLVRFSLDVAAGMLYLESKNCIHRDLAARNCLVGENNTLKISDFGMSRQEDGGVYSSSGLKQIPIKWTAPEALNYGRYSSESDVWSFGILLWETFSLGVCPYPGMTNQQAREQVERGYRMSAPQNCPEEVFTIMMKCWDYKPENRPKFNDLHKELTVIKKMIT
Consider B4, for which the HTS signal in the assay on pEY was 952,661. Moreover, the “fold higher ECL signal than background produced by Mock (Luciferase)” value in the assay on pEY (poly Glu-Tyr) (0.5 to 1 μl of TnT reaction) is on record as 1000 to 1100 fold. The ECL signal with pEY (poly Glu-Tyr) (+EDTA) is recorded as 1,287; with pEY (poly Glu-Tyr) (Control (Table 9)) it was 1,637,307; in the assay with pEY (poly Glu-Tyr) (DNA 0.001 μg/5 μl), 4,432; in the assay on pEY (poly Glu-Tyr) (DNA 0.003 μg/5 μl) it was 129,797; with pEY (poly Glu-Tyr) (DNA 0.010 μg/5 μl), 1,440,103; in the assay on pEY (poly Glu-Tyr) (DNA 0.020 μg/5 μl) it was 1,463,489. Also, the ECL signal in the assay with pEY (poly Glu-Tyr) (DNA 0.040 μg/5 μl) is listed as 1,523,121; with pEY (poly Glu-Tyr) (DNA 0.060 μg/5 μl), 1,553,370; with pEY (poly Glu-Tyr) (DNA 0.080 μg/5 μl), 1,608,671; in the assay on pEY (poly Glu-Tyr) (DNA 0.100 μg/5 μl) it was 1,687,039; with pEY (poly Glu-Tyr) (DNA 0.125 μg/5 μl) it was 1,626,868; in the assay on pEY (poly Glu-Tyr) (complete reaction), 1,608,671. The ECL signal in the assay with pEY (poly Glu-Tyr) (no Mg, no Mn) is recorded as 2,851; in the assay with pEY (poly Glu-Tyr) (plasmid +, no pEY) it was 1,309; with pEY (poly Glu-Tyr) (plasmid +, no tRNA), 1,752; in assay [3], 1,350,546.

B5: 3482498: IMAGE clone protein: Tek, endothelial-specific receptor tyrosine kinase (protein, UniProt Q02858 23-1122, looked up)
Angiopoietin-1 receptor: AMDLILINSLPLVSDAETSLTCIASGWHPHEPITIGRDFEALMNQHQDPLEVTQDVTREWAKKVVWKREKASKINGAYFCEGRVRGQAIRIRTMKMRQQASFLPATLTMTVDRGDNVNISFKKVLIKEEDAVIYKNGSFIHSVPRHEVPDILEVHLPHAQPQDAGVYSARYIGGNLFTSAFTRLIVRRCEAQKWGPDCSRPCTTCKNNGVCHEDTGECICPPGFMGRTCEKACEPHTFGRTCKERCSGPEGCKSYVFCLPDPYGCSCATGWRGLQCNEACPSGYYGPDCKLRCHCTNEEICDRFQGCLCSQGWQGLQCEKEGRPRMTPQIEDLPDHIEVNSGKFNPICKASGWPLPTSEEMTLVKPDGTVLQPNDFNYTDRFSVAIFTVNRVLPPDSGVWVCSVNTVAGMVEKPFNISVKVLPEPLHAPNVIDTGHNFAIINISSEPYFGDGPIKSKKLFYKPVNQAWKYIEVTNEIFTLNYLEPRTDYELCVQLARPGEGGEGHPGPVRRFTTASIGLPPPRGLSLLPKSQTALNLTWQPIFTNSEDEFYVEVERRSLQTTSDQQNIKVPGNLTSVLLSNLVPREQYTVRARVNTKAQGEWSEELRAWTLSDILPPQPENIKISNITDSTAMVSWTIVDGYSISSIIIRYKVQGKNEDQHIDVKIKNATVTQYQLKGLEPETTYHVDIFAENNIGSSNPAFSHELRTLPHSPASADLGGGKMLLIAILGSAGMTCITVLLAFLIMLQLKRANVQRRMAQAFQNREEPAVQFNSGTLALNRKAKNNPDPTIYPVLDWNDIKFQDVIGEGNFGQVLKARIKKDGLRMDAAIKRMKEYASKDDHRDFAGELEVLCKLGHHPNIINLLGACEHRGYLYLAIEYAPHGNLLDFLRKSRVLETDPAFAIANSTASTLSSQQLLHFAADVARGMDYLSQKQFIHRDLAARNILVGENYIAKIADFGLSRGQEVYVKKTMGRLPVRWMAIESLNYSVYTTNSDVWSYGVLLWEIVSLGGTPYCGMTCAELYEKLPQGYRLEKPLNCDDEVYDLMRQCWREKPYERPSFAQILVSLNRMLEERKTYVNTTLYEKFTYAGIDCSAEEAA
Consider B5, for which the HTS signal in the assay with pEY is on record as 10,287. In addition, the ECL signal in assay [3] was 84,706.
